From patent US20160208226A1, “Transaminase Biocatalysts” (COMMONWEALTH SCIENTIFIC AND INDUSTRIAL RESEARCH ORGANISATION, priority 2013, published 2016)

Legend:
Assay type in all cases: biochemical
[1] = Coupled assay of GabT with glutamate dehydrogenase (NADH formation at 340 nm); conditions: coupled GDH assay, NADH detected at 340 nm
From the text: DNA encoding the GabT protein from E. coli strain BL21-DE3 was amplified from genomic DNA using specially designed primers. The PCR product was restricted using NdeI and BamHI restriction endonucleases (NEB) and ligated (T4 DNA ligase, NEB) into a modified pET expression vector that had also been restricted using the aforementioned enzymes, and contained ampicillin resistance for selectivity. The vector was transformed into electrocompetent E. coli strain BL21-DE3 and transformants plated onto LB agar plates containing ampicillin (100 μg/mL) for selectivity. Transformant DNA was isolated and sent for sequencing to confirm the identity of the vector construct. […] The protein was purified using a HiTrap Chelating HP 5 mL column (GE Healthcare) for nickel affinity chromatography on an FPLC (Fast Protein Liquid Chromatography. GE Healthcare), exploiting an N-terminal His6-tag on GabT. SDS-PAGE confirmed the protein size.
Protein activity was confirmed using a coupled assay that comprised GabT and a commercially available glutamate dehydrogenase (GDH; Sigma Aldrich). The assay works as illustrated below, with the dehydrogenase catalysing the oxidative deamination of glutamate—the co-product of the GabT transamination reaction.
Therefore, although a viable biocatalyst for these substrates had been identified, it could not produce the desired longer chain (>C9) products. […]

[2] = Coupled dehydrogenase assays for transaminase activity of the Pseudomonas sp. proteins and ancestral reconstructions
Experimental: Activity for each protein was assessed using coupled dehydrogenase assays as described previously. A typical assay comprised:
Substrate (6.25 mM final concentration in potassium phosphate buffer)
Co-substrate (pyruvate (0.5 mM final concentration) or α-KG (0.25 mM final concentration)
NAD (1.25 mM final concentration)
Dehydrogenase (1 μL from ADH-≧35 units/mL stock solution or GDH≧35 units/mg protein stock)
Transaminase (final concentration dependent)
Potassium phosphate buffer (100 mM)
UV absorbance at 340 nm was recorded at 28° C. over a pH range of 7.5-10 with a range of substrates.
Proteins encoded by p7N6, p7N15, p7N16, p7N17, p7N43 and p7N48 were expressed using an E. coli recombinant expression platform and subsequently purified.
Each of the proteins were assayed for substrate specificity. Substrates identified by assaying for each of the proteins are summarized below.

[3] = Large-scale (200 mL) p6 reaction analysed by GC-MS; conditions: C11 amino acid substrate, after seven days, oil analysed by GC-MS
Experimental: To corroborate the findings of the UV assay, a large-scale (200 mL) p6 reaction was carried out using C11 amino acid substrate. After seven days, the mixed reaction was allowed to settle and yellow oil was observed on the surface of the reaction. This oil was concentrated in vacuo and analysed by GC-MS. […] The diacid is thought to be the oxidation product of the semialdehyde formed by the transaminase, further supporting the findings of the UV assay.

| Molecule | substrate scope of GabT [1] | pH optimum ([2]; UV absorbance at 340 nm, 28° C., pH range 7.5-10) | smallest substrate accepted ([2]; coupled dehydrogenase assay) | activity with ω-amino acids including long chain C11 and C12 ([2]; coupled dehydrogenase assay, 340 nm, 28° C., pH 7.5-10) | product detected by GC-MS in large-scale reaction [3] |
| --- | --- | --- | --- | --- | --- |
| GabT: Gamma-aminobutyrate Transaminase; E.C. 2.6.1.19, from E. coli strain BL21-DE3, N-terminal His6-tag (protein, listed as Escherichia coli, N-terminal His6-tag, Gamma-aminobutyrate Transaminase; E.C; 2.6.1.19, from E. coli strain BL21-DE3, N-terminal His6-tag) MNSNKELMQRRSQAIPRGVGQIHPIFADRAENCRVWDVEGREYLDFAGGIAVLNTGHLHPKVVAAVEAQLKKLSHTCFQVLAYEPYLELCEIMNQKVPGDFAKKTLLVTTGSEAVENAVKIARAATKRSGTIAFSGAYHGRTHYTLALTGKVNPYSAGMGLMPGHVYRALYPCPLHGISEDDAIASIHRIFKNDAAPEDIAAIVIEPVQGEGGFYASSPAFMQRLRALCDEHGIMLIADEVQSGAGRTGTLFAMEQMGVAPDLTTFAKSIAGGFPLAGVTGRAEVMDAVAPGGLGGTYAGNPIACVAALEVLKVFEQENLLQKANDLGQKLKDGLLAIAEKHPEIGDVRGLGAMIAIELFEDGDHNKPDAKLTAEIVARARDKGLILLSCGPYYNVLRILVPLTIEDAQIRQGLEIISQCFDEAKQ | C4-C8 omega-amino acids |  |  |  |  |
| p6: pyruvate: ω-amino acid transaminase from a newly isolated Pseudomonas sp., amino acid sequence SEQ ID NO:1 (protein, listed as Pseudomonas sp.) MGSSHHHHHHSSGLVPRGSHMNQQVNVAPSAAADLNLKAHWMPFSANRNFHKDPRIIVAAEGSWLVDDKGRRIYDSLSGLWTCGAGHSRKEIADAVAKQIGTLDYSPGFQYGHPLSFQLAEKIAQMTPGTLDHVFFTGSGSECADTSIKMARAYWRIKGQAQKTKLIGRARGYHGVNVAGTSLGGIGGNRKMFGPLMDVDHLPHTLQPGMAFTKGAAETGGVELANELLKLIELHDASNIAAVIVEPMSGSAGVIVPPKGYLQRLREICDANDILLIFDEVITAFGRMGKATGAEYFGVTPDIMNVAKQVTNGAVPMGAVIASSEIYDTFMNQNLPEYAVEFGHGYTYSAHPVACAAGIAALDLLQKENLIQQSAELAPHFEKALHGLKGTKNVIDIRNCGLAGAIQIAARDGDAIVRPFEASMKLWKEGFYVRFGGDTLQFGPTFNAKPEDLDRLFDAVGEALNGVA |  | ~10 | C3 (β-alanine) | shown the desired activity with ω-amino acids, notably including long chain amino acids C11 and C12 | a peak corresponding to the mass of the C11 diacid was also found in large concentrations |
